B1: Protein patched homolog 1 (Homo sapiens), Q13635-1 (parent)
chain: MASAGNAAEPQDRGGGGSGCIGAPGRPAGGGRRRRTGGLRRAAAPDRDYLHRPSYCDAAFALEQISKGKATGRKAPLWLRAKFQRLLFKLGCYIQKNCGKFLVVGLLIFGAFAVGLKAANLETNVEELWVEVGGRVSRELNYTRQKIGEEAMFNPQLMIQTPKEEGANVLTTEALLQHLDSALQASRVHVYMYNRQWKLEHLCYKSGELITETGYMDQIIEYLYPCLIITPLDCFWEGAKLQSGTAYLLGKPPLRWTNFDPLEFLEELKKINYQVDSWEEMLNKAEVGHGYMDRPCLNPADPDCPATAPNKNSTKPLDMALVLNGGCHGLSRKYMHWQEELIVGGTVKNSTGKLVSAHALQTMFQLMTPKQMYEHFKGYEYVSHINWNEDKAAAILEAWQRTYVEVVHQSVAQNSTQKVLSFTTTTLDDILKSFSDVSVIRVASGYLLMLAYACLTMLRWDCSKSQGAVGLAGVLLVALSVAAGLGLCSLIGISFNAATTQVLPFLALGVGVDDVFLLAHAFSETGQNKRIPFEDRTGECLKRTGASVALTSISNVTAFFMAALIPIPALRAFSLQAAVVVVFNFAMVLLIFPAILSMDLYRREDRRLDIFCCFTSPCVSRVIQVEPQAYTDTHDNTRYSPPPPYSSHSFAHETQITMQSTVQLRTEYDPHTHVYYTTAEPRSEISVQPVTVTQDTLSCQSPESTSSTRDLLSQFSDSSLHCLEPPCTKWTLSSFAEKHYAPFLLKPKAKVVVIFLFLGLLGVSLYGTTRVRDGLDLTDIVPRETREYDFIAAQFKYFSFYNMYIVTQKADYPNIQHLLYDLHRSFSNVKYVMLEENKQLPKMWLHYFRDWLQGLQDAFDSDWETGKIMPNNYKNGSDDGVLAYKLLVQTGSRDKPIDISQLTKQRLVDADGIINPSAFYIYLTAWVSNDPVAYAASQANIRPHRPEWVHDKADYMPETRLRIPAAEPIEYAQFPFYLNGLRDTSDFVEAIEKVRTICSNYTSLGLSSYPNGYPFLFWEQYIGLRHWLLLFISVVLACTFLVCAVFLLNPWTAGIIVMVLALMTVELFGMMGLIGIKLSAVPVVILIASVGIGVEFTVHVALAFLTAIGDKNRRAVLALEHMFAPVLDGAVSTLLGVLMLAGSEFDFIVRYFFAVLAILTILGVLNGLVLLPVLLSFFGPYPEVSPANGLNRLPTPSPEPPPSVVRFAMPPGHTHSGSDSSDSEYSSQTTVSGLSEELRHYEAQQGAGGPAHQVIVEATENPVFAHSTVVHPESRHHPPSNPRQQPHLDSGSLPPGRQGQQPRRDPPREGLWPPPYRPRRDAFEISTEGHSGPSNRARWGPRGARSHNPRNPASTAMGSSVPGYCQPITTVTASASVTVAVHPPPVPGPGRNPRGGLCPGYPETDHGLFEDPHVPFHVRCERRDSKVEVIELQDVECEERPRGSSSN

Variants of: B1
Settings: with shh_human SHH

Row | effect of a mutation on the interaction | Variant
1 | disrupting interaction | E221A;Y222A;L223A;Y224A
2 | decreasing interaction strength | L254A;W256A

From IntAct's records for PubMed 29995851
